Experimental data published in patent publication US20260242735A1 (UNIVERSIT T BASEL, published 2026).

B1: Refmab #4 (antibody, V domains shown)
VH: QVQLVQSGAEVKKPGESVKVSCKASGYTFTNYGMNWVKQAPGQGLEWMGWINTYTGEPTYADKFQGRVTMTTDTSTSTAYMEIRNLGGDDTAVYYCARWSWSDGYYVYFDYWGQGTSVTVSS
VL: DIVMTQSPDSLTVSLGERTTINCKSSQSVLDSSTNKNSLAWYQQKPGQPPKLLLSWASTRESGIPDRFSGSGSGTDFTLTIDSPQPEDSATYYCQQSAHFPITFGQGTRLEIK
notes: The alanine scan used IgG or Fab
B2: Refmab #2 (antibody, V domains shown)
VH: QVQLVQSGAEVKKPGSSVKVSCKASGGTFSDYAISWVRQAPGQGLEWMGRIIPILGVADYAQKFQGRVTITADKSTRTAYMELSSLRSEDTAVYYCARNWADAFDIWGQGTMVTVSS
VL: DIQLTQSPSSLSASVGDRVTITCRASQGISSVLAWYQQKPGKAPKLLIYDASSLESGVPSRFSGSGSGTDFTLTISSLQPEDFATYYCQQFDSSITFGQGTKLEIK
notes: as for B1
B3: Refmab #3 (antibody, V domains shown)
VH: QVQLVQSGAEVKKPGSSVKVSCKASGYTFTDYNMHWVRQAPGQGLEWIGYIYPYNGGTGYNQKFKSKATITADESTNTAYMELSSLRSEDTAVYYCARGRPAMDYWGQGTLVTVSS
VL: DIQMTQSPSSLSASVGDRVTITCRASESVDNYGISFMNWFQQKPGKAPKLLIYAASNQGSGVPSRFSGSGSGTDFTLTISSLQPDDFATYYCQQSKEVPWTFGQGTKVEIK
notes: as for B1
B4: Refmab #1 (antibody, V domains shown)
VH: EVQLVQSGAEVKKPGSSVKVSCKASGYTITDSNIHWVRQAPGQSLEWIGYIYPYNGGTDYNQKFKNRATLTVDNPTNTAYMELSSLRSEDTAFYYCVNGNPWLAYWGQGTLVTVSS
VL: DIQLTQSPSTLSASVGDRVTITCRASESLDNYGIRFLTWFQQKPGKAPKLLMYAASNQGSGVPSRFSGSGSGTEFTLTISSLQPDDFATYYCQQTKEVPWSFGQGTKVEVK
notes: The alanine scan used IgG or Fab; also called hP67.6

Tests used:
Test in all cases: flow cytometry on HEK293-T, alanine scan
[1] = biological target: human CD33 N99A (human, UniProt P20138 18-364)
Method: (§1) An alanine scan on human CD33 was performed to the determine the residues on CD33 that are involved in binding to the antibodies investigated. […] Briefly, a mutation library of CD33 was created by high-throughput, site-directed mutagenesis. Each residue was individually mutated to alanine, with alanine codons mutated to serine. The mutant library was arrayed in 384-well microplates and transiently transfected into HEK293-T. Following transfection, cells were incubated with the indicated antibodies (IgG or Fab) at concentrations pre-determined using an independent immunofluorescence titration curve on wild type CD33. […] Binding of each antibody to each mutant clone was determined in duplicates. For each point, background fluorescence was subtracted from the raw data, which were then normalized to antibody reactivity with wild type CD33.
(§2) Critical residues for antibody binding (outlined in dark grey) were residues whose mutations led to a binding of the test Abs of less than 20%. Additional secondary residues (outlined in light grey) were identified that led to a binding of the test Abs of between 20 and 40% as compared to the wild type CD33.

[2] = biological target: human CD33 K126A (human, UniProt P20138 18-364)
Method: as §1, §2

[3] = biological target: human CD33 S97A (human, UniProt P20138 18-364)
Method: as §1, §2

[4] = biological target: human CD33 L134A (human, UniProt P20138 18-364)
Method: as §1, §2

[5] = biological target: human CD33 G123A (human, UniProt P20138 18-364)
Method: as §1, §2

[6] = biological target: human CD33 K130A (human, UniProt P20138 18-364)
Method: as §1, §2

[7] = biological target: human CD33 L153A (human, UniProt P20138 18-364)
Method: as §1, §2

[8] = biological target: human CD33 P132A (human, UniProt P20138 18-364)
Method: as §1, §2

[9] = biological target: human CD33 S166A (human, UniProt P20138 18-364)
Method: as §1, §2

[10] = biological target: human CD33 F117A (human, UniProt P20138 18-364)
Method: as §1, §2

[11] = biological target: human CD33 Y116A (human, UniProt P20138 18-364)
Method: as §1, §2

[12] = biological target: human CD33 S102A (human, UniProt P20138 18-364)
Method: as §1, §2

[13] = biological target: human CD33 L161A (human, UniProt P20138 18-364)
Method: as §1, §2

[14] = biological target: human CD33 C163A (human, UniProt P20138 18-364)
Method: as §1, §2

[15] = biological target: human CD33 E154A (human, UniProt P20138 18-364)
Method: as §1, §2

[16] = biological target: human CD33 Q133A (human, UniProt P20138 18-364)
Method: as §1, §2

[17] = biological target: human CD33 I149A (human, UniProt P20138 18-364)
Method: as §1, §2

[18] = biological target: human CD33 T125A (human, UniProt P20138 18-364)
Method: as §1, §2

[19] = biological target: human CD33 P150A (human, UniProt P20138 18-364)
Method: as §1, §2

[20] = biological target: human CD33 L103A (human, UniProt P20138 18-364)
Method: as §1, §2

[21] = biological target: human CD33 R98A (human, UniProt P20138 18-364)
Method: as §1, §2

[22] = biological target: human CD33 M120A (human, UniProt P20138 18-364)
Method: as §1, §2

[23] = biological target: human CD33 V136A (human, UniProt P20138 18-364)
Method: as §1, §2

[24] = biological target: human CD33 G114A (human, UniProt P20138 18-364)
Method: as §1, §2

[25] = biological target: human CD33 D140A (human, UniProt P20138 18-364)
Method: as §1, §2

[26] = biological target: human CD33 G94A (human, UniProt P20138 18-364)
Method: as §1, §2

[27] = biological target: human CD33 S128A (human, UniProt P20138 18-364)
Method: as §1, §2

[28] = biological target: human CD33 R111A (human, UniProt P20138 18-364)
Method: as §1, §2

[29] = biological target: human CD33 H143A (human, UniProt P20138 18-364)
Method: as §1, §2

[30] = biological target: human CD33 P96A (human, UniProt P20138 18-364)
Method: as §1, §2

[31] = biological target: human CD33 V106A (human, UniProt P20138 18-364)
Method: as §1, §2

[32] = biological target: human CD33 R119A (human, UniProt P20138 18-364)
Method: as §1, §2

[33] = biological target: human CD33 A108S (human, UniProt P20138 18-364)
Method: as §1, §2

[34] = biological target: human CD33 G151A (human, UniProt P20138 18-364)
Method: as §1, §2

[35] = biological target: human CD33 S124A (human, UniProt P20138 18-364)
Method: as §1, §2

[36] = biological target: human CD33 T142A (human, UniProt P20138 18-364)
Method: as §1, §2

Sequence of human CD33 S124A (P20138 18-364 S124A limits assumed): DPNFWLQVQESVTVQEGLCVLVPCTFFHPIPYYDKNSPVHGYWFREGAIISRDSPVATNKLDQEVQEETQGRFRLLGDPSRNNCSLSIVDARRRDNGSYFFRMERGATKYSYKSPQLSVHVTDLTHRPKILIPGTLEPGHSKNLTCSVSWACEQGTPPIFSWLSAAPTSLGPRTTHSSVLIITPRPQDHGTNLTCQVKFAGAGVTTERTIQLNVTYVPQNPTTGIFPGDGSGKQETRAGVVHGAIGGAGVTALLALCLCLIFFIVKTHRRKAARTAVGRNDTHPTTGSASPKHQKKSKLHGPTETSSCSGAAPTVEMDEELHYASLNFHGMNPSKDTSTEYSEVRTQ
Sequence of human CD33 S166A (P20138 18-364 S166A limits assumed): as the sequence (P20138 18-364 S124A limits assumed) above, with A107S, S149A counted along it
Sequence of human CD33 Y116A (P20138 18-364 Y116A limits assumed): as the sequence (P20138 18-364 S124A limits assumed) above, with Y99A, A107S counted along it
Sequence of human CD33 R119A (P20138 18-364 R119A limits assumed): as the sequence (P20138 18-364 S124A limits assumed) above, with R102A, A107S counted along it
Sequence of human CD33 N99A (P20138 18-364 N99A limits assumed): as the sequence (P20138 18-364 S124A limits assumed) above, with N82A, A107S counted along it
Sequence of human CD33 L161A (P20138 18-364 L161A limits assumed): as the sequence (P20138 18-364 S124A limits assumed) above, with A107S, L144A counted along it
Sequence of human CD33 G123A (P20138 18-364 G123A limits assumed): as the sequence (P20138 18-364 S124A limits assumed) above, with G106A, A107S counted along it
Sequence of human CD33 Q133A (P20138 18-364 Q133A limits assumed): as the sequence (P20138 18-364 S124A limits assumed) above, with A107S, Q116A counted along it
Sequence of human CD33 S97A (P20138 18-364 S97A limits assumed): as the sequence (P20138 18-364 S124A limits assumed) above, with S80A, A107S counted along it
Sequence of human CD33 K130A (P20138 18-364 K130A limits assumed): as the sequence (P20138 18-364 S124A limits assumed) above, with A107S, K113A counted along it
Sequence of human CD33 G94A (P20138 18-364 G94A limits assumed): as the sequence (P20138 18-364 S124A limits assumed) above, with G77A, A107S counted along it
Sequence of human CD33 P96A (P20138 18-364 P96A limits assumed): as the sequence (P20138 18-364 S124A limits assumed) above, with P79A, A107S counted along it
Sequence of human CD33 H143A (P20138 18-364 H143A limits assumed): as the sequence (P20138 18-364 S124A limits assumed) above, with A107S, H126A counted along it
Sequence of human CD33 D140A (P20138 18-364 D140A limits assumed): as the sequence (P20138 18-364 S124A limits assumed) above, with A107S, D123A counted along it

Binder	Mean % WT Binding [1]	Mean % WT Binding [2]	Mean % WT Binding [3]	Mean % WT Binding [4]	Mean % WT Binding [5]	Mean % WT Binding [6]	Mean % WT Binding [7]	Mean % WT Binding [8]	Mean % WT Binding [9]	Mean % WT Binding [10]	Mean % WT Binding [11]	Mean % WT Binding [12]	Mean % WT Binding [13]	Mean % WT Binding [14]	Mean % WT Binding [15]	Mean % WT Binding [16]	Mean % WT Binding [17]	Mean % WT Binding [18]	Mean % WT Binding [19]	Mean % WT Binding [20]	other results
B1	43.5 % WT binding	212 % WT binding	121 % WT binding	82.2 % WT binding	97.9 % WT binding	180 % WT binding	92.5 % WT binding	70.1 % WT binding	110 % WT binding	142 % WT binding	5.4 % WT binding	73.6 % WT binding	114 % WT binding	43.3 % WT binding	84.4 % WT binding	96 % WT binding	99.9 % WT binding	218 % WT binding	103 % WT binding	85.9 % WT binding	Mean % WT Binding [21]: 128 % WT binding; Mean % WT Binding [22]: 96.8 % WT binding; Mean % WT Binding [23]: 47.7 % WT binding; Mean % WT Binding [24]: 110 % WT binding; Mean % WT Binding [25]: 96.1 % WT binding; Mean % WT Binding [26]: 59 % WT binding; Mean % WT Binding [27]: 184 % WT binding; Mean % WT Binding [28]: 94.3 % WT binding; Mean % WT Binding [29]: 106 % WT binding; Mean % WT Binding [30]: 27.4 % WT binding; Mean % WT Binding [31]: 110 % WT binding; Mean % WT Binding [32]: 138 % WT binding; Mean % WT Binding [33]: 86.5 % WT binding; Mean % WT Binding [34]: 101 % WT binding; Mean % WT Binding [35]: 58.8 % WT binding; Mean % WT Binding [36]: 88.8 % WT binding
B2	56.8 % WT binding	121 % WT binding	132 % WT binding	99.6 % WT binding	82 % WT binding	123 % WT binding	121 % WT binding	102 % WT binding	114 % WT binding	111 % WT binding	0.7 % WT binding	89.6 % WT binding	114 % WT binding	97.7 % WT binding	112 % WT binding	131 % WT binding	116 % WT binding	107 % WT binding	112 % WT binding	110 % WT binding	Mean % WT Binding [21]: 122 % WT binding; Mean % WT Binding [22]: 70.7 % WT binding; Mean % WT Binding [23]: 99.8 % WT binding; Mean % WT Binding [24]: 116 % WT binding; Mean % WT Binding [25]: 109 % WT binding; Mean % WT Binding [26]: 108 % WT binding; Mean % WT Binding [27]: 140 % WT binding; Mean % WT Binding [28]: 108 % WT binding; Mean % WT Binding [29]: 104 % WT binding; Mean % WT Binding [30]: 102 % WT binding; Mean % WT Binding [31]: 112 % WT binding; Mean % WT Binding [32]: 130 % WT binding; Mean % WT Binding [33]: 104 % WT binding; Mean % WT Binding [34]: 132 % WT binding; Mean % WT Binding [35]: 111 % WT binding; Mean % WT Binding [36]: 104 % WT binding
B3	98.6 % WT binding	566 % WT binding	90.4 % WT binding	81.4 % WT binding	292 % WT binding	152 % WT binding	144 % WT binding	74.5 % WT binding	131 % WT binding	166 % WT binding	5.3 % WT binding	75.9 % WT binding	116 % WT binding	65.7 % WT binding	126 % WT binding	101 % WT binding	101 % WT binding	932 % WT binding	102 % WT binding	113 % WT binding	Mean % WT Binding [21]: 102 % WT binding; Mean % WT Binding [23]: 106 % WT binding; Mean % WT Binding [24]: 92.6 % WT binding; Mean % WT Binding [25]: 119 % WT binding; Mean % WT Binding [26]: 115 % WT binding; Mean % WT Binding [27]: 446 % WT binding; Mean % WT Binding [28]: 93.4 % WT binding; Mean % WT Binding [29]: 97.9 % WT binding; Mean % WT Binding [30]: 140 % WT binding; Mean % WT Binding [31]: 85.7 % WT binding; Mean % WT Binding [32]: 1020 % WT binding; Mean % WT Binding [33]: 98 % WT binding; Mean % WT Binding [34]: 108 % WT binding; Mean % WT Binding [35]: 274 % WT binding; Mean % WT Binding [36]: 133 % WT binding
B4	80.2 % WT binding	100 % WT binding	92.5 % WT binding	95.4 % WT binding	107 % WT binding	106 % WT binding	75.7 % WT binding	107 % WT binding	98.3 % WT binding	98.7 % WT binding	0.9 % WT binding	85.8 % WT binding	87 % WT binding	84.6 % WT binding	88 % WT binding	95.6 % WT binding	87.5 % WT binding	92.4 % WT binding	78.4 % WT binding	96.3 % WT binding	Mean % WT Binding [21]: 99.1 % WT binding; Mean % WT Binding [22]: 79.8 % WT binding; Mean % WT Binding [23]: 64.2 % WT binding; Mean % WT Binding [24]: 96.9 % WT binding; Mean % WT Binding [25]: 88.7 % WT binding; Mean % WT Binding [26]: 88.3 % WT binding; Mean % WT Binding [27]: 118 % WT binding; Mean % WT Binding [28]: 100 % WT binding; Mean % WT Binding [29]: 88.8 % WT binding; Mean % WT Binding [30]: 84.9 % WT binding; Mean % WT Binding [31]: 88.5 % WT binding; Mean % WT Binding [32]: 109 % WT binding; Mean % WT Binding [33]: 85.3 % WT binding; Mean % WT Binding [34]: 81.1 % WT binding; Mean % WT Binding [35]: 87.5 % WT binding; Mean % WT Binding [36]: 85.1 % WT binding
